Results reported in patent publication US20250197848A1 (published 2025).

T1: PRAME peptide on HLA-A*02:01 (human)
T1 peptide: VLDGLDVLL

T2: PRAME peptide on HLA-A*02:01 (human)
T2 peptide: SLLQHLIGL

T3: NY-ESO-1/LAGE-1 peptide on HLA-A*02 (human)
T3 peptide: SLLMWITQC


Key:
[1] = target: T1, PRAME peptide on HLA-A*02:01; assay: cytokine release
[2] = target: T2, PRAME peptide on HLA-A*02:01; assay: activation reporter or marker
[3] = target: T3, NY-ESO-1/LAGE-1 peptide on HLA-A*02; assay: cytokine release

binding result [1] | binding result [2] | binding result [3] | Binder
recognises | no recognition |  | PRAMEVLD-TCR (TCR, V domains shown) Valpha: EDQVTQSPEALRLQEGESSSLNCSYTVSGLRGLFWYRQDPGKGPEFLFTLYSAGEEKEKERLKATLTKKESFLHITAPKPEDSATYLCAVHSTAQAGTALIFGKGTTLSVSS Vbeta: DSGVTQTPKHLITATGQRVTLRCSPRSGDLSVYWYQQSLDQGLQFLIQYYNGEERAKGNILERFSAQQFPDLHSELNLSSLELGDSALYFCASSTHRGQTNYGYTFGSGTRLTVV
 |  | recognises | NY-ESO TCR (TCR, V domains shown) Valpha: QKEVEQNSGPLSVPEGAIASLNCTYSDRGSQSFFWYRQYSGKSPELIMFIYSNGDKEDGRFTAQLNKASQYVSLLIRDSQPSDSATYLCAADDKIIFGKGTRLHILP Vbeta: DAGVIQSPRHEVTEMGQEVTLRCKPISGHDYLFWYRQTMMRGLELLIYFNNNVPIDDSGMPEDRFSAKMPNASFSTLKIQPSEPRDSAVYFCASSRGGSGYTFGSGTRLTVV
